Test results reported in patent US6096512A, “Cloned DNA encoding a UDP-GalNAc: Polypeptide, N-acetylgalactosaminyltransferase” (Pharmacia & Upjohn Company, priority 1997, dated 2000).
Entries after “also recorded” stand apart in the source; their conditions may differ.

B1: Myelin basic protein: efficient acceptor for GalNAc-transferase, included as a positive control (protein, UniProt P02686 1-304, looked up)
Myelin basic protein: MGNHAGKRELNAEKASTNSETNRGESEKKRNLGELSRTTSEDNEVFGEADANQNNGTSSQDTAVTDSKRTADPKNAWQDAHPADPGSRPHLIRLFSRDAPGREDNTFKDRPSESDELQTIQEDSAATSESLDVMASQKRPSQRHGSKYLATASTMDHARHGFLPRHRDTGILDSIGRFFGGDRGAPKRGSGKDSHHPARTAHYGSLPQKSHGRTQDENPVVHFFKNIVTPRTPPPSQGKGRGLSLSRFSWGAEGQRPGFGYGGRASDYKSAHKGFKGVDAQGTLSKIFKLGGRDSRSGSPMARR
B2: Subtilisin: bacterial protein produced by a microbial system incapable of O-linked oligosaccharide biosynthesis (protein, UniProt P00782 108-382, looked up)
Subtilisin BPN': AQSVPYGVSQIKAPALHSQGYTGSNVKVAVIDSGIDSSHPDLKVAGGASMVPSETNPFQDNNSHGTHVAGTVAALNNSIGVLGVAPSASLYAVKVLGADGSGQYSWIINGIEWAIANNMDVINMSLGGPSGSAALKAAVDKAVASGVVVVAAAGNEGTSGSSSTVGYPGKYPSVIAVGAVDSSNQRASFSSVGPELDVMAPGVSIQSTLPGNKYGAYNGTSMASPHVAGAAALILSKHPNWTNTQVRSSLENTTTKLGDSFYYGKGLINVQAAAQ
B3: Bovine rhodanese: cytoplasmic protein containing three strong predicted glycosylation sites (protein)
chain: VHQVLYRALVSTKWLAESVRAGKVGPGLRVLDASWYSPGTREARKEYLERHVPGASFFDIEECRDKASPYEVMLPSEAGFADYVGSLGISNDTHVVVYDGDDLGSFYAPRVWWMFRVFGHRTVSVLNGGFRNWLKEGHPVTSEPSRPEPAIFKATLNRSLLKTYEQVLENLESKRFQLVDSRAQGRYLGTQPEPDAVGLDSGHIRGSVNMPFMNFLTEDGFEKSPEELRAMFEAKKVDLTKPLIATCRKGVTACHIALAAYLCGKPDVAIYDGSWFEWFHRAPPETWVSQGKGGKA
B4: GalNAcT 2-1.A: baculovirus isolate of the full length GalNAc-transferase gene (pAC373-GalNAcT) expressed in Sf9 cells (protein)
chain: MRKFAYCKVVLATSLIWVLLDMFLLLYFSECNKCDEKKERGLPAGDVLEPVQKPHEGPGEMGKPVVIPKEDQEKMKEMFKINQFNLMASEMIALNRSLPDVRLEGCKTKVYPDNLPTTSVVIVFHNEAWSTLLRTVHSVINRSPRHMLEEIVLVDDASERDFLKRPLESYVKKLKVPVHVIRMEQRSGLIRARLKGAAVSKGQVITFLDAHCECTVGWLEPLLARIKHDRKTVVCPIIDVISDDTFEYMAGSDMTYGGFNWKLNFRWYPVPQREMDRRKGDRTLPVRTPTMAGGLFSIDRDYFQEIGTYDAGMDIWGGENLEISFRIWQCGGTLEIVTCSHVGHVFRKATPYTFPGGTGQIINKNNRRLAEVWMDEFKNFFYIISPGVTKVDYGDISSRLGLRHKLQCRPFSWYLENIYPDSQIPRHYFSLGEIRNVETNQCLDNMARKENEKVGIFNCHGMGGNQVFSYTANKEIRTDDLCLDVSKLNGPVTMLKCHHLKGNQLWEYDPVKLTLQHVNSNQCLDKATDEDSQVPSIRDCSGSRSQQWLLRNVTLPEIF
B5: GalNAcT 2-1.B: baculovirus isolate of the full length GalNAc-transferase gene (pAC373-GalNAcT) expressed in Sf9 cells (protein)
chain: B4 chain
B6: GalNAcT-Mel: recombinant baculovirus that expresses a secreted form of GalNAc-transferase with honeybee melittin signal peptide (protein)
chain: DPSPALEPVQKPHEGPGEMGKPVVIPKEDQEKMKEMFKINQFNLMASEMIALNRSLPDVRLEGCKTKVYPDNLPTTSVVIVFHNEAWSTLLRTVHSVINRSPRHMLEEIVLVDDASERDFLKRPLESYVKKLKVPVHVIRMEQRSGLIRARLKGAAVSKGQVITFLDAHCECTVGWLEPLLARIKHDRKTVVCPIIDVISDDTFEYMAGSDMTYGGFNWKLNFRWYPVPQREMDRRKGDRTLPVRTPTMAGGLFSIDRDYFQEIGTYDAGMDIWGGENLEISFRIWQCGGTLEIVTCSHVGHVFRKATPYTFPGGTGQIINKNNRRLAEVWMDEFKNFFYIISPGVTKVDYGDISSRLGLRHKLQCRPFSWYLENIYPDSQIPRHYFSLGEIRNVETNQCLDNMARKENEKVGIFNCHGMGGNQVFSYTANKEIRTDDLCLDVSKLNGPVTMLKCHHLKGNQLWEYDPVKLTLQHVNSNQCLDKATDEDSQVPSIRDCSGSRSQQWLLRNVTLPEIF

Key:
[1] = biological target: T1, bovine colostrum GalNAc-transferase (Bos taurus, UniProt Q07537); settings: Cruz and Moscarello, 1983; cited from earlier work
T1 sequence (Q07537 41-559): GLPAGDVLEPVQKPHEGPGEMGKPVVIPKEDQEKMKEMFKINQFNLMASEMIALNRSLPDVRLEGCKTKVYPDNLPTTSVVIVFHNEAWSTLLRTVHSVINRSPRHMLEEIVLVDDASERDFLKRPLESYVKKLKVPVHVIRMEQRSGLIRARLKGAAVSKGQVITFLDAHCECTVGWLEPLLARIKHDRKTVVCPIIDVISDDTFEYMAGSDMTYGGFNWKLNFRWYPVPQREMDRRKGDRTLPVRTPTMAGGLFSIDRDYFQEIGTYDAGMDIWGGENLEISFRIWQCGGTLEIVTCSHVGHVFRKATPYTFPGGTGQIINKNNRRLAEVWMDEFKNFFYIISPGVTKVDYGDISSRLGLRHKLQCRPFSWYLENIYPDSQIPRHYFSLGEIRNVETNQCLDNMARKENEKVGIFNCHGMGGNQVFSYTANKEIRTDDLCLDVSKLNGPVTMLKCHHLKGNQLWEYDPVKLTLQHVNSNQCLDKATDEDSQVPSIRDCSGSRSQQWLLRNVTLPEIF

[2] = biological target: T1, bovine colostrum GalNAc-transferase; assay: Transfer of N-acetylgalactosamine to protein acceptors by bovine colostrum GalNAc-transferase; type: biochemical; settings: for Product formed, native acceptor / Product formed, reduced and carboxymethylated acceptor: acceptor 65 μM, enzyme approximately 65 mU/ml, 60 minutes; for Product formed, reduced and carboxymethylated acceptor: myelin basic protein was not reduced and carboxymethylated; for acceptor activity in words: native or reduced and carboxymethylated
Protocol: (§1) The standard assay for UDP-GalNAc:polypeptide, N-acetylgalactosaminyltransferase activity during purification contained the following components in a final volume of 80 μl: 50 mM Imidazole pH 7.2, 10 mM MnCl2, 0.5% Triton X-100, 15 μM UDP-GalNAc, UDP[1-^3 H-] GalNAc (27,000 cpm/assay), 0.15 mg/ml apomucin and varying amounts of enzyme (see individual experiments). The reaction mixture is incubated at 37° C. for 5-10 minutes (see individual experiments) and the reaction product is TCA precipitated and radioactivity measured as described. Assays for activity in lysates from Spodoptera frugiperda cell line 9 (hereinafter referred to as Sf9 cells) are carried out as described by Thomsen et al., (1990).
The above conclusions and the predictions of the specificity algorithm are validated experimentally by studying the ability of bovine colostrum GalNAc-transferase to transfer N-acetylgalactosamine to a variety of acceptors, both native proteins and synthetic acceptor peptides. The transfer of N-acetylgalactosamine to protein acceptors is assayed as described by Elhammer and Kornfeld, 1986, with minor modifications. The concentration of UDP-GalNAc is saturating in all assays; a Km of 8 μM is reported for bovine colostrum GalNAc-transferase (Elhammer and Kornfeld, 1986).
The transfer of N-acetylgalactosamine to protein acceptors was assayed
under standard conditions (see Material and Methods). The acceptor
concentration was 65 μM, the enzyme concentration approximately
65 mU/ml and assay time was 60 minutes. The transfer to both native and
reduced-carboxymethylated acceptors was assayed.

[3] = tested on: GalNAc-transferase activity in Sf9 cells; assay: Expression of baculovirus isolates of the GalNAc-transferase in Sf9 cells, GalNAcT activity; type: cell-based, Spodoptera frugiperda; settings: for Specific activity: Sf9 cell lysates, 48 hours post infection; for Relative rate: relative to uninfected cells
Protocol: as §1
The putative GalNAcT coding region, pCR1000-91B, is digested with SstII and HindIII (both enzymes cut only in pCR1000 sequences that flank the insert; FIG. 2C) and these sites are blunted using T4 DNA polymerase so that it can be cloned into a baculovirus expression vector. BamHI linkers are then ligated onto the blunted ends and the resulting sample is ligated into the BamHI site of the baculovirus expression vector pAC373 (Summers and Smith, 1986). The resulting isolates are screened for proper orientation of the GalNAcT open reading frame with respect to the baculovirus polyhedron promoter, to yield pAC373-GalNAcT. Cotransfection of Sf9 cells with pAC373-GaINAcT and linearized baculovirus DNA from PharMingen's baculoGold transfection kit is performed using calcium phosphate precipitation (Summers & Smith, 1986). The baculovirus DNA provided in the PharMingen transfection kit contains a lethal mutation that can be corrected by homologous recombination with sequences contained in the pAC373 vector. Therefore, following transfection, only recombinant viruses will grow on Sf9 cells. Transfections are done in duplicate and the resulting virus samples are referred to as GalNAcT 2-1A and GaINAcT 2-1B. Cells are harvested 48 hours post infection and lysed in a detergent containing buffer. Following sedimentation of undissolved material, the cleared lysates are assayed for GalNAcT activity. Lysates from uninfected cells or from cells infected with either a baculovirus containing an unrelated gene, CMV-POL (human cytomegalovirus DNA polymerase gene), or two separate baculovirus isolates of the GaINAcT gene, GalNAcT 2-1A and GaINAcT 2-1B, are assayed.

[4] = tested on: GalNAc-transferase activity in Sf9 cells; assay: Expression of baculovirus isolates of soluble GalNAc-transferase in Sf9 cells, total activity; type: cell-based, Spodoptera frugiperda; settings: for Total activity, cell lysate / Total activity, culture medium: 65 hours post infection; for Total activity, cell lysate: 1X10^6 cells; for Total activity, culture medium: culture medium volume 5 ml
Protocol: GalNAcTs was routinely expressed in one liter batches. Approximately 1×10^9 cells in one liter Grace's serum-free insect medium (Insect Express) were infected with 5 pfu/cell of GalNAcTs-Mel. The infected cells were cultured in shaker flasks for 65 hours before harvest.
^a 1 unit equals one mole Nacetylgalactosamine transferred to apomuci
per minute, under assay conditions.
Cells (1X10^6) were infected with recombinant virus containing GalNAcTs-Mel (5 pfu/cell). The cells were harvestd 65 hours post infrction, lysed in a detergent containing buffer and the GalNac-transferase activity was determined in the cell lysates and the corresponding culture media; lysate and culture medium from uninfected cells were assayed as control. The numbers have been adjusted for differences in protein content in the cell lysates; the volume of the culture media was 5 ml.

Molecule	Product formed, native acceptor [2] [nmol/min/mg]	Product formed, reduced and carboxymethylated acceptor [2] [nmol/min/mg]	Specific activity [3] [Units/mg protein]	Relative rate [3]	Total activity, cell lysate [4] [U]	Total activity, culture medium [4] [U]	other results
B1	22.2	21.3					N-acetylgalactosamines per molecule [1]: 1.2 to 1.5 N-acetylgalactosamines per molecule
B2	< 0.1	0.6					transfer rate slower than to myelin basic protein ([2]; denatured subtilisin vs myelin basic protein): 35 times; acceptor activity in words [2]: neither of them reacts unless reduced and carboxymethylated; also recorded: neither subtilisin nor rhodanese showed any acceptor activity without prior reduction and carboxymethylation
B3	< 0.1	3.3					acceptor activity in words ([2]; listed as bovine rhodanese): neither of them reacts unless reduced and carboxymethylated; acceptor activity in words ([2]; listed as rhodanese): neither subtilisin nor rhodanese showed any acceptor activity without prior reduction and carboxymethylation
B4			13.9	87	16.22	1.61	
B5			11.9	74			
B6					32.15	57.80	portion of total enzymatic activity retained inside the cells [4]: 36%; activity in medium relative to cells expressing the full length molecule ([4]; culture medium): more than 35 times; increase in GalNAc-transferase activity in the culture medium ([4]; vs uninfected cells): 130 fold
